Several values for one entry are separate records, joined by “and”; a condition that tells them apart may be missing. Equal values may be shown once.
Experiments:
[1] = molecular target: PKC-ε (endogenous, human cell extracts) (human) (UniProt Q02156); assay: Western blot Protocol B, IMR-32 extract, Band 1, no peptide
[2] = molecular target: PKC-ε (endogenous, human cell extracts) (human) (UniProt Q02156); assay: Western blot Protocol B, IMR-32 extract, Band 2, no peptide
[3] = molecular target: PKC-βI (endogenous, human cell extracts) (human) (UniProt P05771); assay: Western blot Protocol B, IMR-32 extract, no peptide
PKC-βI (endogenous, human cell extracts) (human), sequence (P05771 2-671): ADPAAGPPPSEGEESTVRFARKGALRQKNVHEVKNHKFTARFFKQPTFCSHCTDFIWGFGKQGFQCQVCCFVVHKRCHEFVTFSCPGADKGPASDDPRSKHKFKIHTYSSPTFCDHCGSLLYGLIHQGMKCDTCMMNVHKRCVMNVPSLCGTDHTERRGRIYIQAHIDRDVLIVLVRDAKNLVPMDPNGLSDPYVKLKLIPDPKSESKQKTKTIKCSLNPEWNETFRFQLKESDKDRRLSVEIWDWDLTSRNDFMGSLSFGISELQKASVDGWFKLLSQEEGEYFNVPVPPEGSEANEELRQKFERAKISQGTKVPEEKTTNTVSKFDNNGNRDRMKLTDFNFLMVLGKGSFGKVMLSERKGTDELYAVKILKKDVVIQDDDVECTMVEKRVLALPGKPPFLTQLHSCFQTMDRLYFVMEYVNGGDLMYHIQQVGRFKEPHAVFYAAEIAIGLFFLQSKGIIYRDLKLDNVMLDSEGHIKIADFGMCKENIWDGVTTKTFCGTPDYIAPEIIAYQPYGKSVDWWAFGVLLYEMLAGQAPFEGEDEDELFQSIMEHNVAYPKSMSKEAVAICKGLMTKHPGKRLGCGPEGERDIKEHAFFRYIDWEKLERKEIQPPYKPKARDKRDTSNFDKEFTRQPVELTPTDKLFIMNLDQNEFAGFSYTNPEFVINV

[4] = molecular target: PKC-βII (endogenous, human cell extracts) (human) (UniProt P05771); assay: as above
PKC-βII (endogenous, human cell extracts) (human), sequence (P05771 other isoform, or with tags, fused parts or gaps limits assumed): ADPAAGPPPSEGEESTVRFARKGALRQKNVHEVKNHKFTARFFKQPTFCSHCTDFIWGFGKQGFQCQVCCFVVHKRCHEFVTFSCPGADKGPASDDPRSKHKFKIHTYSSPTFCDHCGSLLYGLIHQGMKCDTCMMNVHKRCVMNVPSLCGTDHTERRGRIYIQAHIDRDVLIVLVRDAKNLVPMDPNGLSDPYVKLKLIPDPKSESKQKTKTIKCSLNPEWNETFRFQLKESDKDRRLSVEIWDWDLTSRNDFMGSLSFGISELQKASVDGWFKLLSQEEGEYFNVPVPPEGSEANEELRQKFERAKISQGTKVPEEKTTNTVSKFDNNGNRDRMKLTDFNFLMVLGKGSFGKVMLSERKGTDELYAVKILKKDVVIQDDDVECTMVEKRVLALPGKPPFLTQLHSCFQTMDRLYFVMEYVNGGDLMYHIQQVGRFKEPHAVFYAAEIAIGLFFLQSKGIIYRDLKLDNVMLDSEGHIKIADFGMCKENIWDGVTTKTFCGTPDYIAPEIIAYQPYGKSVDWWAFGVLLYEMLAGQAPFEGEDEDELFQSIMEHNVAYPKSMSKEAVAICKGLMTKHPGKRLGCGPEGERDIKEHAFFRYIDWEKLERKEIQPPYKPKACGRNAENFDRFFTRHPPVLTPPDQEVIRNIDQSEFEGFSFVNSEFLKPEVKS

PKC-ε (endogenous, human cell extracts) (human), sequence (Q02156 whole entry): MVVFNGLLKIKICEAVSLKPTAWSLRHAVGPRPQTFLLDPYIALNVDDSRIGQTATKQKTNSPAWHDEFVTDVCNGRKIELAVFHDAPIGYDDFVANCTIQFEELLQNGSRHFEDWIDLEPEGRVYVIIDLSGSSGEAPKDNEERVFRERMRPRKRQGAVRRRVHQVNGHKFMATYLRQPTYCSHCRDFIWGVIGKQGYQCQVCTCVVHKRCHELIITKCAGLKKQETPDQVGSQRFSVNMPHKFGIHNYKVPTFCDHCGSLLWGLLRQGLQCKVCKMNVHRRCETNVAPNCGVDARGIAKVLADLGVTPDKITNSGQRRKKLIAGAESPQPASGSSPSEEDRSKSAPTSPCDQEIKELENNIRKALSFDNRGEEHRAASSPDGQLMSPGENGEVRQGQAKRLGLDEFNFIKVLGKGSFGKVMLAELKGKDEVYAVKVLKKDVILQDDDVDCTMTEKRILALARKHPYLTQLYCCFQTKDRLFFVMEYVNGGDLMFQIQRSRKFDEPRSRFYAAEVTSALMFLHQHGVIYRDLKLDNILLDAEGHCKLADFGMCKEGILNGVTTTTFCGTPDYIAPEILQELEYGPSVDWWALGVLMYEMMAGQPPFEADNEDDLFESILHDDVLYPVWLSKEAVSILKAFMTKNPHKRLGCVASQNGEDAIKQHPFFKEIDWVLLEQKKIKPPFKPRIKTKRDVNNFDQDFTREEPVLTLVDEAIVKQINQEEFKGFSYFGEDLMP

anti-PKC ε antibody (Cat. No. SC-214, Santa Cruz Biotechnology, Inc.)
band intensity [1]: 421 and 420 and 323
band intensity [2]: 261 and 281 and 286

anti-PKC βI antibody (Cat. No. SC-209, Santa Cruz Biotechnology, Inc.)
band intensity [3]: 170

anti-PKC βII antibody (Cat. No. SC-210, Santa Cruz Biotechnology, Inc.)
band intensity [4]: 98.6
